Laboratory results taken from the supplement of paper PMC12042874.
± gives the uncertainty stated by the source.

Assay: amyloid nucleation score (Sup35N fusion, yeast selection) (log enrichment); library NNK1; higher = more nucleation; inactive = no reads after selection
In short: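 DiMSum was used to calculate nucleation scores as log enrichment of output over input reads, centred on the mode score of non-aggregating sequences. Sequences with fewer than 100 input reads were not scored. Input and output came from Illumina sequencing of plasmid inserts in psi-negative yeast expressing peptides of 20 random codons fused to Sup35N, induced 24 hours with 100 μM copper sulfate and then grown 7 days at 30°C on medium lacking adenine and uracil.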

Row | Substance | amyloid nucleation score
1 | SCDMYQYEIV | inactive
2 | SCGNVGQRVVNIQYVGNSRF | 6.34 ± 0.077
3 | SCGVLVSLFLYPKLNFGFYL | 0.419 ± 0.4
4 | SCIVLYMKGSGISCTNYTYC | 6.094 ± 0.054
5 | SCKYSAQNLWHLFYRNSLSS | -2.29 ± 2.1
6 | SCLAIRTSYCNEELSIESMQ | -0.8 ± 0.55
7 | SCLCFLNPTNFEKLLISFVP | 0.725 ± 0.53
8 | SCNFLYGRRLFL | -0.127 ± 0.55
9 | SCRSLDAMDKSWS | 1.5 ± 0.52
10 | SCSGSRMRELAAVYTVIIEY | -1.04 ± 1.1
11 | SCTCVQHPDGSYAFEIGAAN | 0.009 ± 0.96
12 | SCVFLGSWWRCGWMPGSHVP | 1.93 ± 0.29
13 | SCVSSLYCH | 0.057 ± 0.65
14 | SCVYNWFIKVLPKVSTMSGD | 0.41 ± 0.52
15 | SCYVWDCENGSTLFIFVARR | inactive
16 | SDEMVW | 2.65 ± 0.11
17 | SDFNNTFIYSGEKQVLISTC | -0.147 ± 0.34
18 | SDFRMTGLLTWYRSI | -0.228 ± 0.51
19 | SDHRTW | 0.743 ± 0.42
20 | SDKEVVSLQEVHTQSEGSEG | 0.174 ± 0.27
21 | SDPCKCTYCSYLSLDITLYA | 0.05 ± 0.23
22 | SDRDVVRVIYNSVGGTVWFG | 1.07 ± 0.19
23 | SDRKEA | -0.444 ± 0.69
24 | SDRQVSSSRTYKHSTTSLGC | inactive
25 | SDSGCEGESCQNRLISVGLL | -0.084 ± 0.46
26 | SDVVGGYWEDKTSSYGSRLM | 0.423 ± 0.52

Row | Substance | amyloid nucleation score
27 | SDYTYAFPCMRGWCWYFAVS | -0.691 ± 1.7
28 | SEGMCIKLPVALNYSYVHLG | 3.36 ± 0.088
29 | SELRSWFL | -0.109 ± 1.2
30 | SEMGINQKFLLGVQDTLHRY | -1.45 ± 1
31 | SESSYGSSSRTTESSVCVSG | -0.008 ± 0.52
32 | SETFKRE | -0.328 ± 0.66
33 | SETYVLLKNPSDNIMQKWCV | 0.147 ± 0.79
34 | SEVQAPHIRCINIRALYLRN | 2.08 ± 0.39
35 | SEWDFGDCENFKVSYLVVTQ | -0.408 ± 0.4
36 | SEYMLRSNIVFPRWIS | 0.35 ± 0.71
37 | SFAII | 0.91 ± 0.3
38 | SFCPSMSNYTCIFPSTNLTY | 7.033 ± 0.053
39 | SFDNCLFVVVAAAIVNQPVC | 5.83 ± 0.09
40 | SFFFSRVGSLFCLRFYDVFG | -0.858 ± 1.3
41 | SFFRFVQNVSRSAGVSDSAM | -0.508 ± 0.42
42 | SFGKVPFDLPKNFPRVSSVT | -0.276 ± 0.33
43 | SFIMSNS | 0.075 ± 0.41
44 | SFISKLLNYVVAFCVVCDEI | 0.127 ± 0.5
45 | SFLCAFICHYTDVFVHLARS | 1.49 ± 0.54
46 | SFLCCRVFLKSRRCRCGFMQ | 6.01 ± 0.046
47 | SFLDCLRCCKCAGMR | 1.5 ± 0.18
48 | SFMSGSFEWPRSYRALGFKA | -0.719 ± 1.2
49 | SFMVFYNLVCLHMMSNFVAL | 0.377 ± 0.68
50 | SFNNMANMAYYRVRGVLVL | -0.438 ± 0.6
51 | SFNVNLGSHRDVMIVFSF | 6.24 ± 0.064
52 | SFRSLFVFYDN | inactive

Row | Substance | amyloid nucleation score
53 | SFSEICWVVGHYMNGFSQMR | 1.89 ± 0.47
54 | SFSVVCRLKRAFGLAVIVRR | 0.184 ± 1.2
55 | SFVFGHIVKK | 2.72 ± 0.086
56 | SFVIFCRKGNWEWDD | -0.671 ± 0.37
57 | SFVIYSKKCKNGSVNTVACS | 0.142 ± 0.62
58 | SFVVGNGYMVGWWFITAHVA | 0.499 ± 0.41
59 | SFWNSLV | 0.468 ± 1.2
60 | SFYYWHPIALVWYGGARYKC | 1.35 ± 0.43
61 | SGFGYSYCTLHCRTFWCLRP | 0.972 ± 0.3
62 | SGGPWVNCNFNT | 0.494 ± 0.47
63 | SGIEAFNRIIGVCCVLEAGR | 3.58 ± 0.19
64 | SGIGSMWSQLKDSV | 0.136 ± 0.59
65 | SGKNRYIVSSCSWLWAREDL | 0.424 ± 1
66 | SGLLVITFVNEFLYKNVYPL | 1.95 ± 0.25
67 | SGMCTYL | 0.513 ± 0.33
68 | SGNCQSRFVVNGNHKC | 0.371 ± 0.5
69 | SGNSSFIVILNKRTFRLCRY | 1.41 ± 0.18
70 | SGQIQFIMIR | 0.727 ± 0.67
71 | SGRPLEYTDNGEQDRMWWQS | -0.044 ± 0.88
72 | SGSMVRDRW | 1.83 ± 0.27
73 | SGSQY | -1.26 ± 1.7
74 | SGVINTAAMIRTDPWRVLDG | 0.765 ± 0.42
75 | SGWSYRRAGRHWMAMMGNKF | -0.04 ± 0.34
76 | SHEGIIMLMLTHQFSW | 2.07 ± 0.14
77 | SHEGTGLGMGAVG | -0.01 ± 0.36
78 | SHGAGYRFTEFIHHSGGLPN | 0.498 ± 0.39

Row | Substance | amyloid nucleation score
79 | SHGSTLLARYCRINGWPATP | -0.167 ± 0.71
80 | SHIHCFFDDTTNTKKLVWPW | -0.563 ± 0.45
81 | SHKRIWDIFNIGFHQCD | 0.048 ± 0.59
82 | SHLCTMIGTCFL | 1.98 ± 0.13
83 | SHNVKSWCRYSDGQKGLCKY | 1.62 ± 0.43
84 | SHPSKRLRTSKNVCACATNP | -0.12 ± 0.4
85 | SIEDHDYFLIAFY | -0.076 ± 1.6
86 | SIGVGCGEVCFLYRSEPIFV | -0.04 ± 0.31
87 | SIIFGVKTFSVFSKIYGLCW | 3.3 ± 0.067
88 | SILISMYGGSSKKCQRFEEG | 0.977 ± 0.47
89 | SILLWDLKANF | 0.346 ± 0.29
90 | SILTSNMGQSHVSMDVLVVW | inactive
91 | SIPNSAQHFTSPPARFHSTG | 0.042 ± 0.69
92 | SIRFMLYVRVKR | -0.234 ± 0.66
93 | SISAASCIHFRMDVVCKTDF | -0.519 ± 0.41
94 | SIVIIG | -0.155 ± 0.7
95 | SIVMYDTNMTFRWSAYGRKN | 2.13 ± 0.096
96 | SIYEVEGVTLGLEEHNMKGE | -0.43 ± 0.43
97 | SIYSFDHYGANRFLFYGGLS | 0.358 ± 0.62
98 | SKASMEGYW | 0.739 ± 0.54
99 | SKAWNRAGELVVSCTMVS | inactive
100 | SKRCWGDGMDTFSAIVEAIW | -0.128 ± 0.54
101 | SKRMNGRNP | 0.153 ± 0.47
102 | SKSCFFKQYLTSIIYLHTKK | 0.418 ± 0.32
103 | SKSFGFEYPG | -0.002 ± 0.37
104 | SKSGGHASSNG | 0.649 ± 0.85

Row | Substance | amyloid nucleation score
105 | SKTEMSTTMFY | -0.037 ± 0.38
106 | SLATEYCSPFNINRFHLVSI | 1.78 ± 0.29
107 | SLAYCSFHMLKIPLRSGPTW | 0.01 ± 1.2
108 | SLDCLLYTLVDCRAFSFYKN | -0.359 ± 0.39
109 | SLDLMCGHQPRSCMVLDSRV | 0.983 ± 0.97
110 | SLFLGVVHFAVRVSLGSVWG | -0.771 ± 0.82
111 | SLFRVDYIDRFLSQFVEYNG | 0.333 ± 0.55
112 | SLHILISH | 0.537 ± 0.39
113 | SLKFEYCFSPSNVAAVDWGT | -0.34 ± 0.98
114 | SLKFRLYSPNAMALNPKALF | 0.581 ± 0.21
115 | SLKSSCRKNRLM | 0.048 ± 0.5
116 | SLLFY | inactive
117 | SLLTRDVYNRRAR | -0.562 ± 0.36
118 | SLPFTFSLVMMCFFVCVRGL | -1.76 ± 1.2
119 | SLRSHML | 0.938 ± 0.98
120 | SLSKLAICMWSYIFNMSYFC | -0.139 ± 0.81
121 | SLSRNYHPFRAKIFLCLGRN | 0.097 ± 0.82
122 | SLTTHSAGHPLYIHVFNVLV | 0.147 ± 0.35
123 | SLVCNMFLSILRYFGFLNRS | inactive
124 | SLVLSSFPLLIDNSSIESLV | -0.82 ± 0.42
125 | SLVSYSVHANFCVFIWTNGS | 1.25 ± 0.44
126 | SLWNSYLETRV | 1.14 ± 0.69
127 | SLWRDKDISWGGKSYVHVPS | 1.14 ± 0.75
